Here are results for 1 protein from patent publication US20190338269.

In series [1] the target is T1, FVIIv1-psFX-IIa-F2 (FX-IIa expressed with the factor X signal peptide and the FVII isoform v1 propeptide, from HEK, aptamer-purified).
T1 chain 1: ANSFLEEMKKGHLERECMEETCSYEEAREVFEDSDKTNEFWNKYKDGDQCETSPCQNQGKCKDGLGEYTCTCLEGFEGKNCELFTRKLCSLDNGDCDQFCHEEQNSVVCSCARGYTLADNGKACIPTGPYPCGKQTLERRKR
T1 chain 2: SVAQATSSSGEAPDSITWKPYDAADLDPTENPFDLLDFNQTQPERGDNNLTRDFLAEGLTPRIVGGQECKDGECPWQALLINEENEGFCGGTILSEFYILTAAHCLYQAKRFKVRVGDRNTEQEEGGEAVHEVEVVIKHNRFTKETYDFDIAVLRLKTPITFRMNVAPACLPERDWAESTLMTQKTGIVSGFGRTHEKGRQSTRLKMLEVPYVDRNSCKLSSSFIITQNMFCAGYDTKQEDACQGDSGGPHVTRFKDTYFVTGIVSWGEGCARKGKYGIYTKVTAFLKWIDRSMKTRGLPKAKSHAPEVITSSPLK

The target of series [2] is T2, Opti-HEK-VKOR-IIa (FX-IIa with the factor X signal peptide and factor X propeptide variant, co-expressed with human VKOR in HEK, aptamer-purified).
T2 chain 1: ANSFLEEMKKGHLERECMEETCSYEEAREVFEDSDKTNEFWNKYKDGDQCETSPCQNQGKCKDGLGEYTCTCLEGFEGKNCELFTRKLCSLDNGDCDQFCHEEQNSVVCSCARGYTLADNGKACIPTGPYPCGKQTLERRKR
T2 chain 2: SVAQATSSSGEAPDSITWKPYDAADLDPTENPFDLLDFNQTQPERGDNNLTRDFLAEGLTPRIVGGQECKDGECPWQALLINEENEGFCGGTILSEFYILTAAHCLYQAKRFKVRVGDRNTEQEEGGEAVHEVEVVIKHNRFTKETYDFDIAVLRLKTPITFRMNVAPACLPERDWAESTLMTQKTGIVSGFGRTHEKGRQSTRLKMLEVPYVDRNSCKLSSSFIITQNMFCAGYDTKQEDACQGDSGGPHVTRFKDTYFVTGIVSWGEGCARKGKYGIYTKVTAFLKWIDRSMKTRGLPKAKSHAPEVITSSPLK

B1: factor VIIa/tissue factor (TF) complex (protein)
chain 1: ANAFLEELRPGSLERECKEEQCSFEEAREIFKDAERTKLFWISYSDGDQCASSPCQNGGSCKDQLQSYICFCLPAFEGRNCETHKDDQLICVNENGGCEQYCSDHTGTKRSCRCHEGYSLLADGVSCTPTVEYPCGKIPILEKRNASKPQGRIVGGKVCPKGECPWQVLLLVNGAQLCGGTLINTIWVVSAAHCFDKIKNWRNLIAVLGEHDLSEHDGDEQSRRVAQVIIPSTYVPGTTNHDIALLRLHQPVVLTDHVVPLCLPERTFSERTLAFVRFSLVSGWGQLLDRGATALELMVLNVPRLMTQDCLQQSRKVGDSPNITEYMFCAGYSDGSKDSCKGDSGGPHATHYRGTWYLTGIVSWGQGCATVGHFGVYTRVSQYIEWLQKLMRSEPRPGVLLRAPFP
chain 2: SGTTNTVAAYNLTWKSTNFKTILEWEPKPVNQVYTVQISTKSGDWKSKCFYTTDTECDLTDEIVKDVKQTYLARVFSYPAGNVESTGSAGEPLYENSPEFTPYLETNLGQPTIQSFEQVGTKVNVTVEDERTLVRRNNTFLSLRDVFGKDLIYTLYYWKSSSSGKKTAKTNTNEFLIDVDKGENYCFSVQAVIPSRTVNRKSTDSPVECMGQEKGEFREIFYIIGAVVFVVIILVIILAISLHKCRKAGVGQSWKENSPLNVS
Take B1: in series [1], the “FXa generated after incubation with FVIIa/TF (rate of hydrolysis of PNAPEP substrate), percent of the plasma FXa control” value is listed as 36% activated relative to the FXa for FVIIv1-psFX-IIa-F2 and the “activity after FVIIa/TF activation, percent of that of the molecule containing the wild-type propeptide (Opti-HEK-VKOR-IIa)” value was “an activity of 142% of that of the molecule containing the wild-type propeptide”. The “FXa generated after incubation with FVIIa/TF (rate of hydrolysis of PNAPEP substrate), percent of the plasma FXa control” value in series [2] is recorded as 27% activated relative to the FXa for Opti-HEK-VKOR-IIa.
